In patent US8226967B2, “Surface active proteins as excipients in solid pharmaceutical formulations” (BASF SE, priority 2008, dated 2012):

B1: SC: class I hydrophobin from Schizophyllum commune, accession P16933, recombinant his-tagged from E. coli (protein, UniProt P16933 25-136, looked up)
Class I hydrophobin SC3: GGHPGTTTPPVTTTVTVTTPPSTTTIAAGGTCTTGSLSCCNQVQSASSSPVTALLGLLGIVLSDLNVLVGISCSPLTVIGVGGSGCSAQTVCCENTQFNGLINIGCTPINIL
modifications: His tag
B2: PO: class I hydrophobin from Pleurotus ostreatus, accession CAA76494, recombinant from E. coli (protein, UniProt O60048 22-113, looked up)
Class I hydrophobin POH3: IPRTNPPAPTCTTGSLQCCNSVQAASNPVVGLLAGLLGIVLGPITGQVGLTCSPITVIGVGGTSCSAQTVCCNGNSFNGLIVVGCSPVNISL

Experiments:
Type in all cases: physicochemical
[1] = Release of indicator dye from gelatine capsules coated with alginate/hydrophobin biopolymer
From the text: (§1) For setting up the leakage experiments, gelatine capsules with a volume of 0.68 cm^3 (Capsulae operculatae Nr. 0, Pharmapol GmbH, D-25578 Dageling) are filled with the indicator dye bromo phenol blue. The capsules are filled with equal weight proportions of mannitol, sodium hydrogen carbonate, trisodium citrate dehydrogenate and water-soluble bromo phenol blue and closed by joining the upper and lower part of the capsule tightly. To avoid unspecific leakage from the capsule, the joint is sealed.
Filled and sealed capsules were submerged in a solution of 2% w/v alginate (E400) containing 200 μg/ml hydrophobin for 10 seconds. […] Crosslinking of alginate is accomplished by subsequent submerging in 0.1 M CaCl2. Subsequently, the capsules are dried at room temperature.
(§2) For testing the release of dye from the capsules after different surface treatments, the capsules are submerged in 50 ml 0.1 M HCl corresponding to a pH of 1.0 in order to mimic the acidic environment in the stomach. In a second setup, 0.4 U/ml pepsin are added to the 0.1 M HCl to test for resistance to a typical enzyme in the stomach juice. Quantification of the release is accomplished by computer aided optical evaluation of different areas of the solution in the immersion bath leading to arbitrary luminance units.
Hydrophobin SC is prepared and the gelatine capsules are filled with indicator dye as described above. Filled and sealed capsules are submerged in a solution of 2% w/v alginate (E400) containing 200 μg/ml hydrophobin.
Three hydrophobins are used to test if the modulation of the release kinetics of alginate coated gelatine capsules can be achieved with different hydrophobins. SC is prepared as described further above. Two additional hydrophobins are recombinantly produced in a similar procedure as described for SC. TT is from Talaromyces thermophilus and PO from Pleurotus ostreatus. Capsules are filled with indicator dye, sealed and immersed in a mixture of alginate and hydrophobin SC, TT or PO, respectively, as described in examples 1 and 2. As a control, an admixture of alginate and BSA is used. […]

[2] = Release of indicator dye from gelatine capsules coated by spraying with hydrophobin; settings: for release of dye from capsules (retention of dye within the capsule): gelatine capsules sprayed with 200 μg/ml hydrophobin in water, 0.1 M HCl pH 1.0, interval of observation 2 hours, FIG. 1A
From the text: as §1
The filled and sealed capsules are sprayed using a commercially available nebuliser with a solution of 200 μg/ml SC in water.
as §2
The release of dye from capsules coated by spraying with hydrophobins or as a control with water, respectively, is assayed in an acidic environment to mimic stomach conditions. The amount of dye contained in the immersion bath is measured by optical evaluation and given as arbitrary luminance units.

[3] = Dissolution test of Traumeel S tablets coated with alginate/hydrophobin biopolymer; settings: Traumeel S tablets coated with 2% alginate containing 200 μg/ml protein, 0.1 M HCl pH 1, ambient temperature, FIG. 5A
Description: Homeopathic Traumeel®S tablets (Heel GmbH, Baden Baden, Germany) are used for coating experiments. These tablets are highly soluble and are formulated based on lactose monohydrate and magnesium stearate. […] Tablets are then immersed immediately into a solution of 0.1 M CaCl2 and dried at room temperature. For the dissolution test, tablets are immersed in 50 ml 0.1 M HCl at room temperature.
Traumeel® S (Heel) tablets are coated with hydrophobin, and resistance to acidic conditions of pH 1.0 is tested in a dissolution assay. Traumeel® S tablets are submersed in a solution of 2% alginate, containing 200 μg/ml TT, PO, TR or SC, respectively. […] After short submersion, alginate-coated tablets are allowed to polymerise in 0.1M CaCl2 and dried over night at ambient temperature.
The incubation for the dissolution test is at ambient temperature in 0.1M HCl for 10 to 120 min. Results: The coating of tablets with a biopolymer consisting of alginate with an admixture of hydrophobin yields beneficial properties regarding sustained release of a pharmaceutical composition.

[4] = Dissolution of gelatine films with or without hydrophobin; settings: gelatine with 200 μg/ml hydrophobin
Description: Gelatine (stained red, purchased from RUF, Quakenbrück, Germany) is solubilized in water or a SC-solution (final concentration 200 μg/ml). 500 μl solubilized gelatine is added per well of a 6-well macroplate. Gelatine is dried over night at 50° C. Then 500 μl H2O, 0.1 N HCl or 0.1 N HCl with 0.4 U/ml pepsin, respectively, are added to the wells.

Row | Molecule | resistance of coated capsules / onset of dye release, acidic environment ([1]; alginate with 200 μg/ml protein, pH 1.0, FIG. 3A) | release characteristics of capsules (dye release) ([1]; alginate-coated capsules, 200 μg/ml protein, 0.1 M HCl pH 1.0 with 0.4 U/ml pepsin, FIG. 2B) | resistance of capsules to acidic conditions (dye release) ([1]; capsules submerged in 2% w/v alginate containing 200 μg/ml protein, pH 1.0, FIG. 2A) | release of dye from capsules (retention of dye within the capsule) [2] | release of dye from capsules (retention of dye within the capsule) ([2]; listed as SC3) | release of dye from capsules ([2]; sprayed gelatine capsules, 0.1 M HCl pH 1.0 with 0.4 U/ml pepsin, FIG. 1B) | resistance to dissolution of the coated tablet (integrity of tablets) [3] | resistance to dissolution of the coated tablet (integrity of tablets) ([3]; listed as SC3) | dissolution of gelatine ([4]; dried, H2O, 0.1 N HCl or 0.1 N HCl with 0.4 U/ml pepsin, FIG. 5B) | dissolution of gelatine in an environment mimicking gastric juices ([4]; 0.1 N HCl, with or without 0.4 U/ml pepsin) | dissolution of the biopolymer gelatine in water ([4]; water)
1 | B1 | increased resistance to stomach juices | essentially the same | comparable to that of gelatine capsules sprayed with hydrophobin | prolonged retention of dye within the capsule | resistant to an acidic environment | same advantageous release characteristics | superior to the class II hydrophobin TR | delays the dissolution of the tablets significantly | inhibits the dissolution of gelatine | reduced | strongly hampered
2 | B2 | – | – | – | – | – | – | superior to the class II hydrophobin TR | – | – | – | –
